Source: paper PMC4526114, “Structure and vascular function of MEKK3–cerebral cavernous malformations 2 complex” (Nature Communications, 2015)

T1: MEKK3^NPB1 (human, UniProt Q99759 1-124)
T1 construct: MEKK3 (MAP3K3), human, residues 1–124 (N-terminal helix and PB1 domain); also called N terminus of MEKK3; 6 × His–MEKK3^NPB1 (before cleavage); not shown: His6, N-terminal, cleaved
T1 sequence: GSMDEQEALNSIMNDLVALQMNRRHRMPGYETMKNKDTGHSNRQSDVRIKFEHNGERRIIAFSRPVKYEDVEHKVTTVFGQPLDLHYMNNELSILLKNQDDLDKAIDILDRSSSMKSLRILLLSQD


How the values were obtained:
Conditions in all cases: both partners purified
MEKK3^NPB1 [1] = molecular target: T1, MEKK3^NPB1; assay: ITC; CCM2^HHD injected into MEKK3^NPB1 in 20 2.5-μl injections at 25 °C; 150 mM NaCl, 50 mM HEPES pH 7.5; nano-ITC; 'observed Kd'
MEKK3^NPB1 [2] = molecular target: T1, MEKK3^NPB1; assay: SEC-MALS; CCM2^HHD:MEKK3^NPB1 complex used for crystallization, 100 μl of 1.5 mg ml^-1 in 150 mM NaCl, 20 mM Tris pH 8.0, 0.02% sodium azide
CCM2^FL = molecular target: T2, CCM2^FL (human, UniProt Q9BSQ5 1-438); assay: pull-down; GST fusions of MEKK3 immobilised on glutathione Sepharose-4B beads; 5 μl bead slurry and 60 μg purified CCM2 in 500 μl, 4 °C, 2 h; 150 mM NaCl, 50 mM Tris pH 7.5, 0.1% Triton-X100; Coomassie-stained SDS–PAGE of washed beads
T2 construct: CCM2, human, residues 1–438; also called full-length CCM2; CCM2^FL: 1–438; source: purified; not shown: His tag, N-terminal, cleaved
T2 sequence (Q9BSQ5 other isoform, or with tags, fused parts or gaps): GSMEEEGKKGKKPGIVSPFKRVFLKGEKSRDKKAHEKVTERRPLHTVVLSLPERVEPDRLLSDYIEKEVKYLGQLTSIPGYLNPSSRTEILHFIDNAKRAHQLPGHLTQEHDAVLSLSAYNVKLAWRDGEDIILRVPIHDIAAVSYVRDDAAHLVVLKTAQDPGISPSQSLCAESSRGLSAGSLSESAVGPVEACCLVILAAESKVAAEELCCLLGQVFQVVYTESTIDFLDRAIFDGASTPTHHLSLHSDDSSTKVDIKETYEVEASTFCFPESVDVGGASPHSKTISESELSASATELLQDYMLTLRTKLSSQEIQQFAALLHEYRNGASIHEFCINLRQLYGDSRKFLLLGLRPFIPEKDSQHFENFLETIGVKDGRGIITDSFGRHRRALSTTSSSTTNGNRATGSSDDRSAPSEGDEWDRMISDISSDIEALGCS

Row | Kd (MEKK3^NPB1 [1]) [nM] | stoichiometry N (MEKK3^NPB1 [2]) | binding result (CCM2^FL) | Binder
1 | 1400 ± 400 | 1 |  | CCM2^HHD (domain or fragment, human, CCM2, human, residues 283–379 (harmonin homology domain); also called CCM2 harmonin homology domain; CCM2^HHD: 283–379; source: E. coli Rosetta (DE3), purified (HisTrap, TEV cleavage, size exclusion); not shown: His6, N-terminal, cleaved) GSSKTISESELSASATELLQDYMLTLRTKLSSQEIQQFAALLHEYRNGASIHEFCINLRQLYGDSRKFLLLGLRPFIPEKDSQHFENFLETIGVKDGRG
2 |  |  | binds | GST–MEKK3^NPB1 (domain or fragment, human, UniProt Q99759 1-124, looked up, MEKK3 (MAP3K3), human, residues 1–124 (N-terminal helix and PB1 domain); GST-pCDF vector; also called GST–MEKK3^NPB1: 1–124) MDEQEALNSIMNDLVALQMNRRHRMPGYETMKNKDTGHSNRQSDVRIKFEHNGERRIIAFSRPVKYEDVEHKVTTVFGQPLDLHYMNNELSILLKNQDDLDKAIDILDRSSSMKSLRILLLSQD
